# Data: the supplement of paper PMC9170038
# Tested on: K4 kissing-loop RNA reporter
# Assay: apparent KD of K4 kissing-loop reporter; higher = weaker reporter binding
# Conditions: Eterna round: R107; input ligand: arginine 13.2 mM
# Description: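 RNA-MaP round R107: designed RNA switches with theophylline, tryptophan, arginine or FMN aptamers are transcribed on-chip within common flanks. They are titrated with a labelled K4 kissing-loop RNA reporter in RNA-MaP buffer (100 mM Tris pH 7.5, 80 mM KCl, 4 mM MgCl2), without ligand or with the indicated ligand. Median apparent KD per design.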
# 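Further: bound reporter read as fluorescence of individual clusters on recovered sequencing chips by microscopy, with normalized cluster intensities fitted with a binding model.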
row,Sequence,apparent KD of K4 kissing-loop reporter
1,AAGUGUGUGGCGGCCGCCACUAGAAUCCAGUGAUGUUGGAGUUAUCAUAUAAAUGAUAAUCAACAUAGGACCGGGCCAUAUAGAA [Same State - Tryptophan B (Freestyle 7)],523 nM
2,GUCCGGAAGGCGGCUUCACGACCGUGGUGGGAGGAUAUGUCUAAGGACAGAAGGCCCAGUGAUGUUGGGCUUUAGGAGAGCCAUA [Ragele],128 nM
3,UUGCCCGAUGGAGAUACCAGCAGUUGUGCAGUGAUGUUGCACAAGUACUCGCUCCAUUGCUGCCCUUGGCAGCUCCCGGCGAAAA [Reoraren],79.7 nM
4,GCGCAUGUUAAAGGAUAUAGCAGGUGAUACAAGAAAGUGAGUGAUGUUUAUGUAGAUGAUGAUAUGUUAGAAGGUUAACAAGCGC [abcdefghijklmnop],639 nM
5,AAGAAUGCAGGAAGGAGCGGCGGACGGAGUGAUGUUCCGGCUAGUGAUGUUAGCAAACACCGCCAGGUAGGUCGCCUGCUGCCCU [Same State Arginine B GF 6],127 nM
6,UAAGAGGACCACUGCAAAAGUCCUCGAAUACGAGGACCGGUACGGCCGCCACUCGAUAAUUUGCAGUGAUGUUGCAAGUAAGAAU [BrourdMod 4 - Jieux - Same State Tryptophan A],158 nM
7,AGCUAGUGAAACUAGUUUAAACUAGGUGAAGGAGCGAUCGAAAGAUCAGGUAGGUCGCACCUAACUGAGUGAUGUUCAGGAAAUA [KL-SSArg-A4],54.3 nM
8,GCACACUAGUAAACUAGUGUGUUAACUGAAGGAGCGUGAAUAAUCACAGGUAGGUCGCAGUUUGUCAGUGAUGUUGACACGAGUG [Arg A SS t2],217 nM
9,CUGCAAAAGUCGGCCGCCACUCCGGGCCCUAUAAAUGGGCGCAGUGAUGUUGCGGCUAGGCCUCUGAGGACCGGGACUUUGUAAC [Aratan],64.7 nM
10,CCAUCGCUAUUCGAUACCAGCUCCUUAGUGAUGUUAAGGUUUUACGCUCUGUAGGAGCGAAGCCCUUGGCAGCGAGUAGUGAUGG [#04 K4 Theophylline B Same State],832 nM
11,GGCAUGCGUAGAGUGAUGUUCUAAGAUGAUACCAGUGCGGAAACGCACCCUUGGCAGCAUCUGACGAGCAUGCCGGCGAAAGCCU,586 nM
12,AGAGUUAUGCGAGGAUAUGCAGUUAGUACUCAAAGAGUACUAACGCAGAGUGAUGUUCUGUGAAAUGCAGAAGGUGCAUAACUCA [Omei KL FMN B SS B v5],316 nM
13,GGGCAAGUGAGUGAUGUUCGAUGAUGCUUAAAGGAUAUGUAGGAAUACAGAAGGUUAUAUUCCCUGACAUUAGAUCUUUACAGGG [theeternabot_exclusion_KL_FMN_A_44],134 nM
14,GACCUAAGCUAUGAUACCAGUCUGGCACGAAGAAGUGAUGUUUCCCAGCGUUUGUCACUUGACCCUUGGCAGCAUGCGAUCAGCU [theeternabot_sameState_KL_Theo_B_29],106 nM
15,CGAGUGAUGUUCGUUCGUUUAUUUCGGUGACAGGAUAUGCGGAAACGCAGAAGGGUCACCUUUGAGUUACCGGAAUUAACGUUAU [Ex FMN A 29],453 nM
16,CGAAGAUUCCAUGAUACCAGCCUCGGCCCAUAGAGUGAUGUUCUAGUCGGGUCCGUUCGCGGCCCUUGGCAGCAUUUCACCACGA [theeternabot_sameState_KL_Theo_B_44],172 nM

row,Sequence,apparent KD of K4 kissing-loop reporter
1,UGUCAUUGGUCGGCCGCCACUAUAUAAAAGAGUGAUGUUCUAAAGACGGAUCGAAAGAUCUGUCAUAGGACCGGGACCGAUGACU [TrypBS 20 #SwitchBubble #StaticStem],204 nM
2,UCCCUAAAGGGAGAUACCAGUAAAGAAGUGACGGAGUGGAGUGAUGUUCCAUAUUACUGAUACCCUUGGCAGCUCUUUUGAUUAC [theeternabot_sameState_KL_Theo_B_47],155 nM
3,AACUGUCAAGGACAACAUUACUGAGGUGAUACCAGCAUCGAAAGAUGCCCUUGGCAGCACCGACUUGCAGUGAUGUUGCAAGUAA [BrourdMod 11 - Jieux - Exclusion - Theophylline A],219 nM
4,UUUUAAUGCAGUGAUGUUGCUAAUAAAACAGAGGAUAUGCAUGGAAGCAGAAGGCUGAAAUAUUAUACUUUAAUAAAUUAUAUUU [JR_SSFMNA_Sub010],116 nM
5,AUUCUUUUUUUGAUGUUUUUUGUAUAAUGGCAGGAUAUCGUAGAAGCGAGAAGGGCUUUUAUGCGUUAUGAGUGAUGUUUGUAGG [szeewvmullin],262 nM
6,GCUAUGGUAGGAAGGAGCGCUUAUUUAUUAAUAAGAGUGAUGUUCGAUAGUAGAUAUUUAUAGCAGGUAGGUCGCCUACUAUAGC [Arginine B K4 12],196 nM
7,UUGCUUCUACUAGGAUAUCAUCAGUCAUGUUCAAUGACACUCGAGUGAUGUUCGAUAGAAGCGAGAUGAGAAGGAGUACAAGCAG [FMB B SS t3],48.8 nM
8,GAUUCUGUUCGAAAGAACGGAAUCUCGGAAGGAGCGAGAGAAAUCUCAGGUAGGUCGCCGAAUUUUUGAUAGUGAUGUUAUCAUU [Arginine A K4 3],380 nM
9,AAGCAGUCACUCGUAACCAUCGAAGAUGGUCGAGGACCGGUACGGCCGCCACUCGGAGUGAUGUUCCGAAGACUGCAAAAUAAAA [#SwitchBubble 12],238 nM
10,AAAUGUUUGUAUUUGAACAAUUUCCUUAGAGAGGAUAUUGGUAAUACAAGAAGGCUCUGAUGGGAGUGAUGUUCCCAUAACGCGG [Exclusion FMN A GF14],114 nM
11,ACGUGCACUAGUGAUGUUGGAAAAUAGGAAGGAGCGGGCGAAAGCCCAGGUAGGUCGCCUAAUAGCACGAGCCACGAAAGUGGCA,514 nM
12,AAUUUAUUAACUGAUACCAGACUUAAUUAAUUGUAAAUUACUAGUGAUGUUAGUGAUUCUGUCCCUUGGCAGCAGUAUUUAUUAA [JR_ExcTheophyB_Sub011],120 nM
13,GCCGUACGCAUGGAUACCAGCAUCGACUCAUAUACAGUGAUGUUGUGUAAUGACCUCAUUUGCCCUUGGCAGCCAUGCGUACGGC,291 nM
14,AGUACGGUGCCGUUCAGAUCAACGUAUGAUACCAGCUCGUAUAUUAGCCCUUGGCAGCAUCCGAGUGAUGUUCGGAUUGUGCCAC [theeternabot_exclusion_KL_Theo_A_45],98 nM
15,CGCGCCCAGCCGGAUACCAGUGACCCGCUGGGAACCGCGGGCCCAGAGUGAUGUUCGGGACACCCUUGGCAGCCGCCUGGGCGGG [#2 Same State - Theophylline B Attempt #16 (HarryS)],606 nM
16,AAAUUUAAUAUAUUUAAUUAAUUAUGUGAUACCAGACAUUAAUAAGUCCCUUGGCAGCACAAUGCAGUGAUGUUGCAUAUAAUAA [JR_SSTheophyA_Sub011],115 nM

# Same assay, conditions: Eterna round: R107; input ligand: none
row,Sequence,apparent KD of K4 kissing-loop reporter
1,GGAGGGAUCUCGGCCGCCACUCAUAAGAAAUGGGCCUCAGAGAUAUAGUGAUGUUAUGUAAAGAAGAGGACCGGGAGAAAGAAGG [ExTryptoB.Db],141 nM
2,UAUAUAGUGACGGCCGCCACUAUUGUGAUUUAAUUGUUAGAGUGAUGUUUUGUUGUUUGAUUUUGUAGGACCGGGUUAUAUGUUA [vnbbwzmullin],982 nM
3,GUAUGUGGAAACACGUACUUAUAUCCUAAGCAGGAUAUGCGGAAACGCAGAAGGGCUACCAACGAGUUUACCCAGUGAUGUUGGG [Ex FMN A 14],320 nM
4,UACAUAUUAUUAUUUCUACAUUUAUUUAGUCAGGAUAUCGAUUAAACGAGAAGGGACAAUAUCAAGUGAUGUUUGAUAAUUCAAA [JR_SSFMNA_Sub022],81.6 nM
5,GUGGAAUUAUGAAAGUGGUUUUAUAAGGAAGGAGCGGCCGAAAGGCCAGGUAGGUCGCCUAUUGACAGUGAUGUUGUUAUAUGGA [#13],103 nM
6,GAUGUUUGCCGAAGGAGCGAGUAUUCGCCAGUGAUGUUGGUGAGAUAUACACGUAUCAGUGCUCAGGUAGGUCGCGGCGCUUGUU [Same State Arginine B GF 27],129 nM
7,AAGGCCACGAGAAGGAGCGUGCUGUGGAGUGAUGUUCCAUUGUAGACCUAAGGUCUACGAGCACAGGUAGGUCGCUCGUGGUCAA [Omei KL Arginine B SS A v4],95.3 nM
8,AAAUUUAUAUUAGAUACCAGCAUAUUGAAAGUUUAUUAUGACAAGAGUGAUGUUCUUGUAUGCCCUUGGCAGCUGGUAUGGGUUU [KL-XTheo-B25],104 nM
9,AAGCAGUCGCUCGAAGCCAUCGAAGAUGGGCGAGGACCGGUACGGCCGCCACUCGGAGUGAUGUUCCGAGGACUGCAAAAUAAAA [MatMod 5 - Jieux - Exclusion - Tryptophan A],321 nM
10,UAGUCCGGGUGAUGGUCAUCACGUGGCGGGCGAGGACCGGUACGGCCGCCACUCGACUUUGCAGUGAUGUUGCAAACCGGACAAU [Exclusion - Tryptophan A (Freestyle 22)],201 nM
11,AAGUGUGUGGCGGCCGCCACUAGAAUCCAGUGAUGUUGGAGUUAUCAUAUAAAUGAUAAUCAACAUAGGACCGGGCCAUAUAGAA [Same State - Tryptophan B (Freestyle 7)],550 nM
12,GUCCGGAAGGCGGCUUCACGACCGUGGUGGGAGGAUAUGUCUAAGGACAGAAGGCCCAGUGAUGUUGGGCUUUAGGAGAGCCAUA [Ragele],143 nM
13,UUGCCCGAUGGAGAUACCAGCAGUUGUGCAGUGAUGUUGCACAAGUACUCGCUCCAUUGCUGCCCUUGGCAGCUCCCGGCGAAAA [Reoraren],84.7 nM
14,GCGCAUGUUAAAGGAUAUAGCAGGUGAUACAAGAAAGUGAGUGAUGUUUAUGUAGAUGAUGAUAUGUUAGAAGGUUAACAAGCGC [abcdefghijklmnop],842 nM
15,AAGAAUGCAGGAAGGAGCGGCGGACGGAGUGAUGUUCCGGCUAGUGAUGUUAGCAAACACCGCCAGGUAGGUCGCCUGCUGCCCU [Same State Arginine B GF 6],171 nM
16,UAAGAGGACCACUGCAAAAGUCCUCGAAUACGAGGACCGGUACGGCCGCCACUCGAUAAUUUGCAGUGAUGUUGCAAGUAAGAAU [BrourdMod 4 - Jieux - Same State Tryptophan A],130 nM
17,AGCUAGUGAAACUAGUUUAAACUAGGUGAAGGAGCGAUCGAAAGAUCAGGUAGGUCGCACCUAACUGAGUGAUGUUCAGGAAAUA [KL-SSArg-A4],70.7 nM
18,GCACACUAGUAAACUAGUGUGUUAACUGAAGGAGCGUGAAUAAUCACAGGUAGGUCGCAGUUUGUCAGUGAUGUUGACACGAGUG [Arg A SS t2],249 nM
19,CUGCAAAAGUCGGCCGCCACUCCGGGCCCUAUAAAUGGGCGCAGUGAUGUUGCGGCUAGGCCUCUGAGGACCGGGACUUUGUAAC [Aratan],87 nM
20,CCAUCGCUAUUCGAUACCAGCUCCUUAGUGAUGUUAAGGUUUUACGCUCUGUAGGAGCGAAGCCCUUGGCAGCGAGUAGUGAUGG [#04 K4 Theophylline B Same State],1060 nM
21,GGCAUGCGUAGAGUGAUGUUCUAAGAUGAUACCAGUGCGGAAACGCACCCUUGGCAGCAUCUGACGAGCAUGCCGGCGAAAGCCU,814 nM
